Molecular target: the molecule itself
Assay: SEC; size-exclusion chromatography of EcoMinCNTD in a broad range of protein concentrations

B1: Escherichia coli MinC N-terminal domain (EcoMinCNTD), residues 1-105 (domain or fragment, UniProt P18196 1-105, looked up)
chain: MSNTPIELKGSSFTLSVVHLHEAEPKVIHQALEDKIAQAPAFLKHAPVVLNVSALEDPVNWSAMHKAVSATGLRVIGVSGCKDAQLKAEIEKMGLPILTEGKEKA
notes: MinC (septum site-determining protein), Escherichia coli, N-terminal domain, residues 1-105; amplified from E. coli genomic DNA (ATCC No. 700926D-5); Cloned into a modified pET-28a vector (BamHI/XhoI); The printed molecular weight is 11863 Da; also called unfused-EcoMinCNTD; source: E. coli BL21 (DE3), purified (Ni-NTA, TEV cleavage, size-exclusion chromatography)
- stoichiometry N: 2

Source: PMC3795569, “Crystal structure of the N-terminal domain of MinC dimerized via domain swapping” (Journal of Synchrotron Radiation, 2013)
